The record followed here is patent publication US20200181261A1 (Bayer, published 2020).

Common to all, as to assay: FACS, transfected HeLa cells
For orientation: Flow cytometry measures light scatter and fluorescence of single cells or particles in a stream.

For assay [1], the target named is T1, human CEACAM3, full-length, on transfected HeLa cells (human, UniProt P40198 35-252).
T1 construct: also called TPP-4187; HeLa human CEACAM3
T1 sequence: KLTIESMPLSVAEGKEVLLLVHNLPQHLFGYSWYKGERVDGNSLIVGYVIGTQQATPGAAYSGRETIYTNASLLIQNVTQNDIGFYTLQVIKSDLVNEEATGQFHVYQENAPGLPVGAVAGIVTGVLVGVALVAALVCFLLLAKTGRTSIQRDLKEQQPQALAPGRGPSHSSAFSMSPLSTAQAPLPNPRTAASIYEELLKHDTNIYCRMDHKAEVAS
As for the experimental part:
(§1) For FACS experiments HeLa wild type cells were cultured in RPMI-1640, 10% FCS, while CEACAM-receptor transfected HeLa cells received in addition 0.5% Gentamycin (stock 10 mg/ml, Fa. PAA) and 200 μg/ml Hygromycin B (stock 50 mg/ml, Invitrogen). Cells were washed 3 times with PBS w/o Ca²⁺/Mg²⁺ and were detached from the culture plate non-enzymatically with EDTA dissociation buffer (Gibco). Cells were washed in cold FACS buffer (PBS w/o Ca²⁺/Mg²⁺ and heat-inactivated 3% FCS) and were counted using a countess machine (Invitrogen). 10⁵ cells per well were plated and incubated with the respective primary antibody (5 μg/ml) for 1 h at 4° C. on a plate shaker. […] After 2 times washing the cells were resuspended in 100 μl FACS buffer and were analysed on a FACS Canto II machine (Beckton Dickinson) or a FACS Array (Beckton Dickinson).
(§2) For EC₅₀ analysis, the primary antibodies were used at increasing concentrations in a range from 0.1 nM to 100 nM. Half maximal binding values (EC₅₀) were determined by plotting the median fluorescence intensity signal against the concentration (logarithmic scale). Curve fitting of data was performed using the Graph Pad prism analysis software.

Assay [2] has as its target T2, human CEACAM8, full-length, on transfected HeLa cells (human, UniProt P31997 35-320).
T2 construct: also called TPP-4190; HeLa human CEACAM8
T2 sequence: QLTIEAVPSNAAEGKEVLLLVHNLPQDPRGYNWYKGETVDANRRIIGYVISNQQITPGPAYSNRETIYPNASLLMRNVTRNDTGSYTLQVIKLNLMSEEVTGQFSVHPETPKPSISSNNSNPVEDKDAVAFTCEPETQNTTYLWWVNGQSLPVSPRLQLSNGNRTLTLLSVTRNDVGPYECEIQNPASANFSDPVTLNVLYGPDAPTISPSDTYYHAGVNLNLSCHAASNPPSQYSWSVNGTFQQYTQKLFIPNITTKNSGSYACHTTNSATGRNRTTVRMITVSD
As for the experimental part: as §1, §2

Assay [3] has as its target T3, human CEACAM1, full-length, on transfected HeLa cells (human, UniProt P13688 35-526).
T3 construct: also called TPP-4185; HeLa human CEACAM1
T3 sequence: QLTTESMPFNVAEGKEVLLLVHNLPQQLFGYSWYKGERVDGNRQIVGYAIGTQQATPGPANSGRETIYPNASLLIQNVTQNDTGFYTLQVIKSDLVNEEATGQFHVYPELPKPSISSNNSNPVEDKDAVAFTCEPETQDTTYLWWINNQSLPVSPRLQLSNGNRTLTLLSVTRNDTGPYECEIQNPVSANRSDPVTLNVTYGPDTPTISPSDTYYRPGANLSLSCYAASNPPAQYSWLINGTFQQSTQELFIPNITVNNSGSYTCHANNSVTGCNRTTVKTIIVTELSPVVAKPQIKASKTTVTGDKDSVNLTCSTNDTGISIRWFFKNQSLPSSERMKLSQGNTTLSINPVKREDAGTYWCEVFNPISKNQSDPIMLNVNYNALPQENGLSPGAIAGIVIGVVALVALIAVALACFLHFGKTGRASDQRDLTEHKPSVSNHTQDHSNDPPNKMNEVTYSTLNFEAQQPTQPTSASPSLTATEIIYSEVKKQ
Here is the method:
as §1, §2

The target of assay [4] is T4, human CEACAM5, full-length, on transfected HeLa cells (human, UniProt P06731 35-685, GPI anchor at the C-terminus on the cell surface, not carried by the letters).
T4 construct: also called TPP-4188; HeLa human CEACAM5
T4 sequence: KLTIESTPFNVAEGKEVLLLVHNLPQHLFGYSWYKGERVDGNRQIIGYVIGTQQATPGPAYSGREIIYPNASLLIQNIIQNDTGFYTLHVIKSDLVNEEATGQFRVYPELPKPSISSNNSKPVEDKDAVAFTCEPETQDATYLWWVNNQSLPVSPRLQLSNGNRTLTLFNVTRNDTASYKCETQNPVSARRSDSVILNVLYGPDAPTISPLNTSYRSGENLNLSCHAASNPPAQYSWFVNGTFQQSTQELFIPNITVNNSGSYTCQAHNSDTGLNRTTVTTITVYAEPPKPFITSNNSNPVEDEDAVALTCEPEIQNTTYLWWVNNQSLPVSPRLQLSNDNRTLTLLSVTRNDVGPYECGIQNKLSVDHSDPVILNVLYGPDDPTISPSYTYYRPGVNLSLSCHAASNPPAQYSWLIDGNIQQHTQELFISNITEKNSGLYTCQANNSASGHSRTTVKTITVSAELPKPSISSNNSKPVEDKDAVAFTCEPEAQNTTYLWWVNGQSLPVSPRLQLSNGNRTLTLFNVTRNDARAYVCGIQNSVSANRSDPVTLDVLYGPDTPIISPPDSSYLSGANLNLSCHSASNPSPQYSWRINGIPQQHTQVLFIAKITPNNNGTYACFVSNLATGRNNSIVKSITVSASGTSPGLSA
Here is the method: as §1, §2

The target of assay [5] is T5, Macaca fascicularis (cynomolgus) CEACAM6, full-length, on transfected HeLa cells (Macaca fascicularis, GPI anchor at the C-terminus on the cell surface, not carried by the letters).
T5 construct: also called TPP-4189; HeLa Cynomolgus CEACAM6
T5 chain: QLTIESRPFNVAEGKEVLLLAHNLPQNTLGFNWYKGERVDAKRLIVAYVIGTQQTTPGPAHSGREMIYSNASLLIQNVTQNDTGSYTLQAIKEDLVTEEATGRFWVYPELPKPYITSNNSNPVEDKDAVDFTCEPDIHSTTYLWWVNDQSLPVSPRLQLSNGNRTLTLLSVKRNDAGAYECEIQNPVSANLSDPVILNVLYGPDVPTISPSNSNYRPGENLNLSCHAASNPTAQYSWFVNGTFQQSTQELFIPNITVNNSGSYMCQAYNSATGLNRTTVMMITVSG
As for the experimental part: as §1, §2

B1: TPP-3714 (antibody, human IgG2, kappa)
heavy: QVTLRESGPALVKPTQTLTLTCTFSGFSLSTYGIGVGWIRQPPGKALEWLAHIWWNDNKYYSTSLKTRLTISKDTSKNQVVLTMTNMDPVDTATYYCARISLPYFDYWGQGTLVTVSSASTKGPSVFPLAPCSRSTSESTAALGCLVKDYFPEPVTVSWNSGALTSGVHTFPAVLQSSGLYSLSSVVTVPSSNFGTQTYTCNVDHKPSNTKVDKTVERKCCVECPPCPAPPVAGPSVFLFPPKPKDTLMISRTPEVTCVVVDVSHEDPEVQFNWYVDGVEVHNAKTKPREEQFNSTFRVVSVLTVVHQDWLNGKEYKCKVSNKGLPAPIEKTISKTKGQPREPQVYTLPPSREEMTKNQVSLTCLVKGFYPSDIAVEWESNGQPENNYKTTPPMLDSDGSFFLYSKLTVDKSRWQQGNVFSCSVMHEALHNHYTQKSLSLSPG
light: DIQLTQSPSFLSASVGDRVTITCKASQNVGTAVAWYQQKPGKAPKLLIYSASNRYTGVPSRFSGSGSGTEFTLTISSLQPEDFATYYCQQYSSYPLTFGGGTKVEIKRTVAAPSVFIFPPSDEQLKSGTASVVCLLNNFYPREAKVQWKVDNALQSGNSQESVTEQDSKDSTYSLSSTLTLSKADYEKHKVYACEVTHQGLSSPVTKSFNRGEC
notes: humanized from TPP-2971, human IgG2; also called TPP-2971HU2-hIgG2Kappa
Take B1: the binding result in assay [1], in assay [2], in assay [3] and in assay [4] was “no binding (tested: 5 µg/ml)” in each case. For the same molecule, the EC50 in assay [5] is 1 nM.

B2: TPP-3323 (antibody, human IgG2, kappa, V domains shown)
VH: QVTLKESGPGILQPSQTLSLTCSFSGFSLTTYGIGVGWIRQPSGKGLEWLAHIWWNDNKYYNTALKSRLTISKDTSNNQVFLKIASVDTADTATYYCARISLPYFDYWGQGTTLTVSS
VL: DIVMTQSQKFMSTSVGDRVSITCKASQNVGTAVAWYQQKPGQSPKLLIYSASNRYTGVPDRFTGSGSGTDFTLTISNMQSEDLADYFCQQYNNYPLTFGAGTKLELKR
notes: human IgG2 chimera; also called TPP-3187X1-hIgG2; hIgG2 chimera of TPP-3187
Take B2: the binding result in assay [1], in assay [2], in assay [3] and in assay [4] was “no binding (tested: 5 µg/ml)” in each case. The molecule also displayed an EC50 in assay [5] of 0.8 nM. This molecule also gave an FACS median fluorescence in assay [5] of 100 to 1000 medianfluorescence.

B3: TPP-3308 (antibody, human IgG2, kappa, V domains shown)
VH: QVTLKESGPGILQPSQTLSLTCSFSGFSLSTYGIGVGWIRQPSGKDLEWLAHIWWNDNKYYNTALKSRLTISKDTSNNQVFLKIASVDTADTATYYCARISLPYFDYWGQGTTLTVSS
VL: DIVMTQSQKFMSTSVGDRVSITCKASQNVGTAVAWYQQKPGQSPKLLIYSASNRYTGVPDRFTGSGSGTDFTLTISNMQSEDLADYFCQQYSSYPLTFGAGTKLELKR
notes: human IgG2 chimera; also called TPP-2971X1-hIgG2Kappa; hIgG2 chimera of TPP-2971
For B3, the binding result in assay [1], in assay [2], in assay [3] and in assay [4] was “no binding (tested: 5 µg/ml)” in each case. In assay [5], this molecule showed a half-maximal effective concentration (EC50) of 0.6 nM. Further, the FACS median fluorescence in assay [5] lay in the range of 100 to 1000 medianfluorescence.

The EC50 is the concentration that produces a half-maximal response.
